Consider one substance from publication PMC9181312.

For this experiment, the target named is Human ACE2-hIgG1Fc (human) (UniProt Q9BYF1). Briefly: SPR.

As usually defined, the Kd is the equilibrium constant for the complex coming apart. One may read the koff as the first-order rate constant of dissociation. High values mean fast dissociation, low ones slow dissociation.

Chain of Human ACE2-hIgG1Fc (human) (Q9BYF1 18-740): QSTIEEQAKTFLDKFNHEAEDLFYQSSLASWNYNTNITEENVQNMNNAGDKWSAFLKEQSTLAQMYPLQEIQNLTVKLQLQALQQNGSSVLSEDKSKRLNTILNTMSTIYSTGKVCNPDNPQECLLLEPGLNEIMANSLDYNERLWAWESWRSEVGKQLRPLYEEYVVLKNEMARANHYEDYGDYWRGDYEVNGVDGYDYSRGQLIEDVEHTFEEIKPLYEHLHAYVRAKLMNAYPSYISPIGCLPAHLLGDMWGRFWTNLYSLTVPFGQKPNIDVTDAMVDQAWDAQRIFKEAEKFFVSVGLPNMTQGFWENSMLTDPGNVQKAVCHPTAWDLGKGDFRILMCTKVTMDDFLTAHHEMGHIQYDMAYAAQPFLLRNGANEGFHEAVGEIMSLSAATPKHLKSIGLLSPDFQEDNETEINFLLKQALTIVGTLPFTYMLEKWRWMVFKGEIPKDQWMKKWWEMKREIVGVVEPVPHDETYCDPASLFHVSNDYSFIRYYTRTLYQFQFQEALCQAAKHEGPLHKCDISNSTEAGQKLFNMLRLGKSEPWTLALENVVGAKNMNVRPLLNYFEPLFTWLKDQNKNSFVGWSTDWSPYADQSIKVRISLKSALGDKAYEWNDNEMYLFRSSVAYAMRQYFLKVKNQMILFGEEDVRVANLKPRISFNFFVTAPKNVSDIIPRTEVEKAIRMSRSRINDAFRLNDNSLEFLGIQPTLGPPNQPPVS

Take Wuhan RBD: the Kd turned out to be 7.3 nM and the koff was 0.0051 s⁻¹.
